The target in experiment [1] is T1, mouse GPNMB endogenously expressed on B16F10 cells (mouse, UniProt Q99P91 23-574).
T1 construct: whole, on cells; also called moGPNMB
T1 sequence (looked up): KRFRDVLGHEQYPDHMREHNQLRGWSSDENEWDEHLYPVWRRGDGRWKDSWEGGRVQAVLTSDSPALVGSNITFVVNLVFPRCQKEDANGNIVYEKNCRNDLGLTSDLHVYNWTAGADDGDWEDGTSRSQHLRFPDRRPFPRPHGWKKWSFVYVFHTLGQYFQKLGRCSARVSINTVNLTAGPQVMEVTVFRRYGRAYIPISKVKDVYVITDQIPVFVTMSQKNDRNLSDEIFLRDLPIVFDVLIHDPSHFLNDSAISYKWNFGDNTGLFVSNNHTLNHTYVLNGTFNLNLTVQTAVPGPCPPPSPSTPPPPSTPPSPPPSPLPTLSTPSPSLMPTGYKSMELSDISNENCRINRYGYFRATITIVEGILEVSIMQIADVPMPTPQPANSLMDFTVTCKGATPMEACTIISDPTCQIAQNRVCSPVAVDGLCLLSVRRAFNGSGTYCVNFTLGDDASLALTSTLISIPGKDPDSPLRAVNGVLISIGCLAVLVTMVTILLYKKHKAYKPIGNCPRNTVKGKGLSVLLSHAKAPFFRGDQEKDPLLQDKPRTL
Put plainly: FACS titration, B16F10 cells. As to the method: Cell-based binding measurements were also performed to measure the apparent affinities of anti-GPNMB antibodies of the present disclosure to cell-surface expressed GPNMB. Serial dilutions of the monoclonal anti-GPNMB antibodies were added to 100,000 Freestyle293-huGPNMB+ or B16F10 cells and allowed to achieve binding equilibrium at 4° C. After addition of fluorescently labeled secondary antibody and brief washing steps, MFI values as a function of titrated antibody concentration was recorded via FACS analysis. Curves were fit using nonlinear regression analysis with Graphpad Prism 6 software.

Experiment [2] addresses T2, full-length untagged human GPNMB expressed on cells (human, UniProt Q14956 23-572).
T2 sequence: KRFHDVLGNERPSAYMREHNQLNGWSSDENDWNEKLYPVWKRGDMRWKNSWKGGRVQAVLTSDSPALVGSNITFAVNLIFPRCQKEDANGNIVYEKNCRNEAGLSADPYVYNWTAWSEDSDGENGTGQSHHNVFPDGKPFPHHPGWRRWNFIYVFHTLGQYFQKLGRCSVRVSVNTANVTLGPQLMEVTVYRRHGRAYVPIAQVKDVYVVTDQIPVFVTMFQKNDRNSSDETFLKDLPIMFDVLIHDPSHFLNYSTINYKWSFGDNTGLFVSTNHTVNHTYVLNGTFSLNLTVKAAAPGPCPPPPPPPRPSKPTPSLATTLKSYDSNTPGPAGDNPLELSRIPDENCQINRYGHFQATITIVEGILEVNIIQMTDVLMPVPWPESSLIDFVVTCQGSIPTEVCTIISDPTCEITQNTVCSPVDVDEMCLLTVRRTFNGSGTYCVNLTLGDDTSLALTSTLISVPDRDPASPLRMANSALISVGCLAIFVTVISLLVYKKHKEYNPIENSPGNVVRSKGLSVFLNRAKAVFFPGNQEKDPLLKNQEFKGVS
Put plainly: cell-based or functional assay.

In experiment [3] the target is T2, full-length untagged human GPNMB …. The experiment can be described thus: FACS titration, FS293-huGPNMB+ cells.
For experiment [4], the target named is T1, mouse GPNMB endogenously expressed on …. Put plainly: FACS titration, B16F10 cells. As for the experimental part:
Affinity matured anti-GPNMB antibodies of the present disclosure were examined to determine their ability to bind human and mouse GPNMB expressed on FS293-huGPNMB+ or B16F10 cells, respectively. Cell-based affinity measurements were performed to ascertain the apparent affinities of anti-GPNMB antibodies to cell-surface expressed GPNMB. Serial dilutions of anti-GPNMB antibodies of the present disclosure were added to 100,000 FS293-huGPNMB+ or B16F10 cells and allowed to achieve binding equilibrium at 4° C. After addition of fluorescently labeled secondary antibody and brief washing steps, MFI values as a function of titrated antibody concentration were recorded via FACS analysis. Equilibrium binding curves were fit using nonlinear regression analysis with Graphpad Prism 6 software.
This is another data set of the same source.

For experiment [5], the target named is T2, full-length untagged human GPNMB …. Put plainly: cell-based or functional assay. The source holds these as a separate data set.
Experiment [6] has the same target. The experiment can be described thus: cell-based or functional assay. The source holds these as a separate data set.
Experiment [7] deals with T3, soluble mouse GPNMB-Fc polypeptide (mouse IgG2A Fc) (mouse, UniProt Q99P91 23-502).
T3 construct: extracellular domain; bought (R&D System); also called moGPNMB-Fc; mGPNMB-Fc; not shown: Fc region of mouse IgG2A
T3 sequence (looked up): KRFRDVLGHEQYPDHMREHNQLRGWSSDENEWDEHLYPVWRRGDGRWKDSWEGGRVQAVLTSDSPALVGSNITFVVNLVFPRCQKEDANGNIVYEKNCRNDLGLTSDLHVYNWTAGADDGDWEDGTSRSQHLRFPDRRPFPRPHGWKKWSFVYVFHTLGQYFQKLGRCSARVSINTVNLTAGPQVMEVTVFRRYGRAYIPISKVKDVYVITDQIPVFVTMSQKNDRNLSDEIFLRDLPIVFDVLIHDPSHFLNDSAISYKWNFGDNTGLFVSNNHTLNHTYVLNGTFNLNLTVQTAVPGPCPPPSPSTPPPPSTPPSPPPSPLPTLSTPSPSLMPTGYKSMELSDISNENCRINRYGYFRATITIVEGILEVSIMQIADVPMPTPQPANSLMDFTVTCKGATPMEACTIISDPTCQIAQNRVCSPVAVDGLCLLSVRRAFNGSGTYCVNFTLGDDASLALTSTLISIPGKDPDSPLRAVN
Put plainly: FACS, blocking of mGPNMB-Fc binding to SVEC cells. As to the method:
Purified full-length affinity matured, anti-GPNMB antibodies were evaluated for their ability to block binding of mouse GPNMB-Fc to SVEC cells to calculate the ligand blocking potency of each clone. Briefly, 2 μg/ml soluble mGPNMB-Fc (mouse IgG2A Fc) diluted in binding buffer was pre-complexed with increasing concentrations of anti-GPNMB antibody or human IgG1 isotype control in 96-well plates. Subsequently, 100,000 SVEC cells were added per well and incubated on ice for 30 minutes. Soluble GPNMB-Fc bound to cell surface was detected with fluorescent anti-mouse IgG2A secondary antibody and measured on FACSCanto. Curves were fit using nonlinear regression analysis with Graphpad Prism 6 software.
A general note: In flow cytometry, cells or beads pass a laser one at a time.

Like-named read-outs stand apart in the source and are kept apart here.

Results on seven molecules are retold here after patent publication US20250270343A1 (Alector, published 2025).

A word on the EC50: it is the concentration that produces a half-maximal response. A higher EC50 goes with weaker potency. The term IC50 denotes the point on the concentration scale where inhibition reaches its midpoint. Low values mean inhibition by little substance, high ones a need for much substance.

B1: anti-GPNMB antibody GPN-52 (antibody, human IgG1, V domains shown)
VH: DVQLQESGPGLVKPSQTVFLTCTVTGISITTGNYRWSWIRQFPGNKLEWIGYIYYSGTITYNPSLTSRITITRDTPKNEFFLEMNSLTAEDTATYYCARDLTHWYFDVWGTGTTVTVSS
VL: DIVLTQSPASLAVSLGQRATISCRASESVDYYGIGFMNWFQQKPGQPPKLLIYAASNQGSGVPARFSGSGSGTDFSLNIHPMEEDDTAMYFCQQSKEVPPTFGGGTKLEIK
notes: chimeric
As to B1, the response in experiment [1] was half-maximal at 1.6 nM (EC50).

B2: anti-GPNMB antibody GPN-41 (antibody, human IgG1, V domains shown)
VH: QLQLQQSGTEVVKPGASVKIPCKASGYAFSSYWMNWVKQRPGKGLEWIGQIYPGDGDTNDNGKFEGKATLTVDKSSNTAYIQLSSLTSEDSAVYFCARSPLHLRGSMDYWGQGTSVTVSS
VL: SIVMTQTPKFLLVSAGDRVTITCKASQSVSNDVAWFQQKPGQSPELLIYSASNRYTGVPDRFTASGYGTDFTFTISAVQAEDLAVYFCQQNYYSPFTFGGGTRLEIK
notes: chimeric
In turn, B2 showed an EC50 in experiment [1] of 2.62 nM.

B3: anti-GPNMB antibody GPN-43 (antibody, human IgG1, V domains shown)
VH: EVQLQQSGPELVKPGASVKISCKASGYTFTDYYMNWVRQSHGKSLEWIGDINPYHGGSTYNQKIKVKATLTVDKSSSTAYMELRSLTSEDSAVYYCARNWPYFDYWGQGTTLTVSS
VL: DIQMTQSPASLSASVGETVTITCRASENIYSFLVWYQQKQGKSPQLLVYNAKTLAEGVPSRFSGSGSGTQFSLKISSLQPEDFGSYYCQHHFGTPPYTFGGGTKLEIK
notes: chimeric
Molecule B3 displayed an EC50 in experiment [1] of 36.2 nM.

B4: anti-GPNMB antibody GPN-90 (antibody, V domains shown)
VH: QVQLQESGPGLVKPSETLSLTCTVSGISITTGNYRWSWIRQPPGKGLEWIGYIDYSGTITYNPSLKQRVTITRDTSKNQFSLELSSVTAADTAVYYCARDLTHWYFDVWGQGTLVTVSS
VL: DIVMTQSPDSLAVSLGERATINCKSSRSVDYYGIGFLNWYQQKPGQPPKLLIYATSHQGSGVPDRFSGSGSGTDFTLTISSLQAEDVAVYYCQQQKEVPPTFGGGTKVEIK
B4: the “Inflammasome: Fold Decrease IL-1β (max response at 0.3 µg/ml)” value in experiment [2] worked out at 0.564 fold. This molecule registered an EC50 in experiment [3] of 0.148 nM. The same molecule showed an EC50 in experiment [4] of 0.416 nM. Also, in experiment [5], the “EC50 PDL1” value was found to be 0.68 nM, the “Fold Increase CD40 (max response at 1 µg/ml)” value was 2.12 fold and the “Fold Increase PDL1 (max response at 1 µg/ml)” value came out at 4.28 fold. For the same molecule, in experiment [6], the “EC50 GCase” value was 0.685 nM, the “EC50 Lyso Tracker” value is 1.58 nM, the “Fold Decrease Lyso Tracker (max response at 1 µg/ml)” value came out at 0.761 fold and the “Fold Increase GCase (max response at 1 µg/ml)” value was found to be 1.37 fold. Besides, the IC50 in experiment [7] came out at 1.43 nM.

B5: anti-GPNMB antibody GPN-86 (antibody, V domains shown)
VH: QVQLQESGPGLVKPSETLSLTCTVSGISITTGNYRWSWIRQPPGKGLEWIGYIDYSGTITYNPSLKSRVTITRDTSKNQFSLELSSVTAADTAVYYCARDLTHWYFDVWGQGTLVTVSS
VL: DIVMTQSPDSLAVSLGERATINCKSSRSVDYYGIGFLNWYQQKPGQPPKLLIYATSKQGSGVPDRFSGSGSGTDFTLTISSLQAEDVAVYYCQQQKEVPPTFGGGTKVEIK
As for B5, the “Inflammasome: Fold Decrease IL-1β (max response at 0.3 µg/ml)” value in experiment [2] is 0.404 fold. Further, the EC50 in experiment [3] was determined as 0.203 nM. The molecule further showed an EC50 in experiment [4] of 0.178 nM. In experiment [5], the “EC50 PDL1” value stood at 1.37 nM, the “Fold Increase CD40 (max response at 1 µg/ml)” value is 2.15 fold and the “Fold Increase PDL1 (max response at 1 µg/ml)” value worked out at 4.57 fold. Besides, in experiment [6], the “EC50 GCase” value was 0.166 nM, the “EC50 Lyso Tracker” value came to 1.2 nM, the “Fold Decrease Lyso Tracker (max response at 1 µg/ml)” value turned out to be 0.731 fold and the “Fold Increase GCase (max response at 1 µg/ml)” value is 1.34 fold. Further, the IC50 in experiment [7] stood at 1.26 nM.

B6: anti-GPNMB antibody GPN-38 (antibody, human IgG1, V domains shown)
VH: QVQLQQPGAELVRPGTSVRLSCKASGYTFTSYWIHWVKQRPGRGLEWIGVIDPSDSYTNYNQQFNVKATLTVDTSSSAAYMQLSSLTSEDSAVYYCARGLITAVNWYFDVWGTGTTVTVSS
VL: DIQMTQSPASLSTSVGEIVTITCRASENIYSYLTWYQQKQGKSPQLLVYNAKTLAEGVPSRFSGSGSGTQFSLKINSLQPEDFGTYYCQHHYGTPLTFGSGTKLEIK
notes: chimeric
Regarding B6, the EC50 in experiment [1] stood at 5.38 nM.

B7: anti-GPNMB antibody GPN-35 (antibody, human IgG1, V domains shown)
VH: EVQLVESGGGSVRPGRSLKLSCAAAGFTFSDYYMTWVRQAPTKGLEWVASINHDGGGTYYRDSVKGRFTISRDNARSSLYLQMDSLRSEDTGTYYCTTRAGWHWGQGVMVTVSS
VL: DIQMTQSPASLSASLGETVSIECLASEDIYNYLTWYQQKPGKSPQVLIYSASGLQDGVPSRFSGSGSGRQYSLKINGLESEDAATYFCLQDSEYPLTFGSGTKLEIK
notes: chimeric
In the case of B7, a half-maximal response in experiment [1] (EC50) required 2.29 nM.
